The values below come from paper PMC8103780.

Where only a bound is given, the exact number is not on record here.

To fix the notation:
B1: (GT)2 (ssDNA)
DNA: GTGT
B2: T10 (ssDNA)
DNA: TTTTTTTTTT
B3: T6 (ssDNA)
DNA: TTTTTT

The data set has as its target SARS-CoV-2 nucleocapsid protein (N-protein) (SARS-CoV-2, UniProt P0DTC9 1-419). Briefly: SV-AUC.
What is called Kd is the concentration at which binding is half-saturated. Higher therefore signals weaker binding. The molecule B1 yielded a Kd of over 10000 nM.

Regarding B2, the Kd was under 100 nM.

With B3, the Kd was found to be 290 nM.
